Results on 167 variants are retold here after the RNAGym collection of RNA variant scans (doi:10.1073/pnas.2313332121).

The chains are these.
B1: TPR t1 (parent)
chain: GACCAAUCUGCCCUCAGAGCUCGAGAACAUCUUCGGAUGCAGAGGAGGCAGGCUUCGGUGGCGCGAUAGCGCCAACGUCCUCAACCUCCAAUGCAUCCCACCACAUGAUGAUGCCUGAAGAGCCUUGGUUUUUUG

In the series the parent is B1. As to the kind of experiment: polymerase ribozyme fitness, log enrichment relative to wild type (log ratio); higher = more active; in vitro selection for triplet polymerase activity. The method, boiled down:
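Each subunit of a heterodimeric triplet polymerase ribozyme was mutagenized into a library by PCR, transcribed, and subjected to one round of in vitro selection, run in triplicate. Libraries were annealed with a biotinylated primer, the partner subunit and triplets, incubated frozen at −7 °C, and extended constructs were gel-excised, captured on streptavidin beads and recovered by RT-PCR. Input and output libraries were sequenced on Illumina, keeping genotypes with ≥10 input reads and ≥1 read per output. Fitness is log base 2 of genotype enrichment divided by wild-type enrichment, from inverse-variance-weighted replicate averages.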
In the case of A6C U59G, the “polymerase ribozyme fitness (log ratio)” value was -0.454.
The value for A5U C64G C124U was -6.6; that for A6G A46C G48U G52U A95C was -5.42; that for A6G C98U U106A C124A was 1.28.
As to A5U A119G, the “polymerase ribozyme fitness (log ratio)” value was found to be 0.901.
As for A5U G110C, the “polymerase ribozyme fitness (log ratio)” value is -3.71.
Under A6G G61C C89U stands -2.67.
Under A5U C62G A90G C123U stands -0.143; under A5U U7A C15U C76A, -1.76.
The value for A6G C49G C56G U81G C114U U132C was -5.17.
With A6G A29C G45U C102A C124U, the “polymerase ribozyme fitness (log ratio)” value was -5.32.
The value for A6C C72U C73U C98G C115A U116G was -7.45; that for A6C A118U was 0.712; that for A5U C12U C49U C94U was -2.22.
Under A6G C8A A26G A84U C99A stands -5.28; under A6G U7C A50U C80G U112G, -4.92; under A5U G63U U133A, -2.34.
In the case of A6C G39U G77U G113U C114G, the “polymerase ribozyme fitness (log ratio)” value was -3.79.
Under A6C G47U C124A stands -1.59.
The value for A5U U81G G93A U106A C123U was -3.99.
With A6C U9A C11G A74G, the “polymerase ribozyme fitness (log ratio)” value is -0.26.
Under A6G C15U C89U U96A stands -0.964; under A6C G63A, -0.611; under A6C U59G C86U G113U, -3.51.
The value for A6C A37C was -0.884; that for A6C G57C was -0.375; that for A6G C12A C80U G113U was -3.95.
The value for A6C C8A A66U C85U was -1.77; that for A5U C13G G44C was -2.74; that for A6C A29U G52U C53U G120A C123U was -2.96.
On to A6G G39U G69U A119U, for which the “polymerase ribozyme fitness (log ratio)” value is -0.0303.
Take A5U G36C G48U C85U: the “polymerase ribozyme fitness (log ratio)” value is -2.32.
The value for A6G C72G G117U A121U G127A was -2.18; that for A5U U21C C97U was -1.38; that for A6C G48U C72U U87C G110U was -2.52.
The value for A6G C56G A103U was -4.63; that for A6C C72U G120U U133A was -0.162; that for A5U C72G U106C was -0.417.
Under A6G C72U G93A stands -0.751.
Regarding A6C G47U, the “polymerase ribozyme fitness (log ratio)” value was -1.55.
Under A6C C72U A91G A121U G128C stands -0.723; under A5U C49G C70A, -3.06; under A5U C49G C70G, -4.62.
The value for A6G C13G G47A C56A C80U was -2.43.
Under A5U C49G C53A G71U stands -0.914; under A6C G36C, -1.4.
For A6G C73A U112A G120U U130G, the “polymerase ribozyme fitness (log ratio)” value was found to be 0.876.
The value for A5U U7G A43U G71U A83C was -2.36; that for A6C C97U was -1.01.
As to A6C C97G, the “polymerase ribozyme fitness (log ratio)” value was -5.16.
Take A6C G35U U59C A83U C98G A121U: the “polymerase ribozyme fitness (log ratio)” value was -4.28.
The value for A5U C89G was -1.4.
Under A6G A37U C56G stands -1.11.
Under A6G C8U C49G C70A U78C stands -3.15; under A6C A68G, -3.13; under A6G C12A C56A C72A, -1.87.
For A6C U9A G52A A68G U106A, the “polymerase ribozyme fitness (log ratio)” value is -2.55.
As to A5U C8U G93A A105G, the “polymerase ribozyme fitness (log ratio)” value was -2.84.
Under A6G A46U G48U C101U U116C G122U stands -5.6; under A6C G69U C72U, -0.0767; under A6U A18U C76U, -2.81.
The value for A6G G58A U59C was -1.72.
For the variant A6C A43G G63U G69A G117C, the “polymerase ribozyme fitness (log ratio)” value was -5.96.
The value for A5U C53U G63A C79G G127C was -2.9; that for A6G A95C was -1.16; that for A5U C72U U81C was -0.617.
Under A5U C64U C85G C86U U109A C124G U133G stands -6.39.
The value for A6C C13A G48C C49G C85A U92C was -4.52.
For the variant A6C A29U G45A G113U, the “polymerase ribozyme fitness (log ratio)” value is -4.91.
On to A6C G19C A43U A50C U96G, for which the “polymerase ribozyme fitness (log ratio)” value was -4.2.
As to A5U C62U, the “polymerase ribozyme fitness (log ratio)” value was -0.31.
On to A6G C12U A50U U54G A100C, for which the “polymerase ribozyme fitness (log ratio)” value was -6.08.
Under A5U G48C stands -2.24; under A6C C13U A27U C62A C82A, -4.43.
The value for A5U G19A G52A G57A A95G was -4.08; that for A6C U109C G110U C114U was -6.23.
Under A5U C49U C70U stands -1.06; under A6G A43G G57U C73U U81A, -3.53.
On to A6G G42U C73A C85U U106G G110U, for which the “polymerase ribozyme fitness (log ratio)” value is -5.96.
Turning to A6G C76A C88G A121U G128A, the “polymerase ribozyme fitness (log ratio)” value was -1.67.
The value for A5U C62U C72U was -0.208.
The value for A5U C12U G61A was 0.0113.
Turning to A6G C72U C97U, the “polymerase ribozyme fitness (log ratio)” value was -1.35.
Under A6C G44C G61A C80A U112A stands -4.74; under A5U G19A C72G U112G, -4.06.
Under A5U G69U stands 0.406; under A6G U14G C28U G110C C115U U125A, -6.22.
Consider A6C C8A C13G A43U G69C C88A, for which the “polymerase ribozyme fitness (log ratio)” value was -2.92.
In the case of A6C G48C C72U U106A, the “polymerase ribozyme fitness (log ratio)” value was -1.51.
Under A6C C8A U32C A84U A90G G110C C114U stands -5.68; under A5U G57A G63U C89G U112C U126A, -3.35.
The value for A6C A29U A91C was -4.88; that for A5U C12G C89U A103C G117U was -6.59; that for A6C A108G C115U was -5.
Turning to A5U C123A, the “polymerase ribozyme fitness (log ratio)” value was 1.2.
As to A5U G113A G122A G127C, the “polymerase ribozyme fitness (log ratio)” value is -3.33.
Under A5U C15A C62A G122A stands -4.9; under A6G G45U C73U C98U A111G U125A, -5.29; under A6G C102A C124A U130A, 0.13.
The value for A5U U92G C104U was -2.44; that for A6C U7G A29G G48C A95C was -3.37; that for A5U U9G G36A G39A U96G was -5.14.
The value for A6G C72G C88U C123A was 0.738; that for A5U U14G A83C A111C was -2.47.
Turning to A6C C98A, the “polymerase ribozyme fitness (log ratio)” value was -4.73.
Consider A6C U14G C94U C101G, for which the “polymerase ribozyme fitness (log ratio)” value is -4.26.
The value for A6C G93U A100U was -2.54.
On to A5U C40U C88A C101A A121U, for which the “polymerase ribozyme fitness (log ratio)” value worked out at 0.119.
The value for A6U A24C C28A G47U G65C C102G G107A G120A G127U was -6.59.
Under A5U C8U C11U G61A G113A C124G stands -0.703.
The value for A5U U14C A18U G45U G71U A121C was -5.73; that for A6G U78C C102A C124A U130A was -1.35.
Take A6G C12A A46U C53A C56A: the “polymerase ribozyme fitness (log ratio)” value was -1.28.
In the case of A6G C49U G69U, the “polymerase ribozyme fitness (log ratio)” value was -0.168.
On to A5U G39A G60U C70U, for which the “polymerase ribozyme fitness (log ratio)” value is -2.4.
The value for A6G C70U was -1.29; that for A6C C8A A121C was 1.45.
Under A6C C40A C62U C88A C104A stands -5.43.
The value for A6G U9C C13G C89U A90U C94U A105U A121G was -2.84.
A5U G42A: the “polymerase ribozyme fitness (log ratio)” value was -1.63.
Turning to A5U U9A U32C A37U C49U G69U G93A, the “polymerase ribozyme fitness (log ratio)” value is -1.24.
As for A6G C98G, the “polymerase ribozyme fitness (log ratio)” value was -6.34.
As to A6G C82G U87A A90U, the “polymerase ribozyme fitness (log ratio)” value is -2.92.
Regarding A6C U7C C56U A91G U106G G120U, the “polymerase ribozyme fitness (log ratio)” value is -4.11.
The value for A5U U9G G48A U78A was -0.963.
For the variant A5U G69U G110A, the “polymerase ribozyme fitness (log ratio)” value is -0.583.
Regarding A5U C104A, the “polymerase ribozyme fitness (log ratio)” value is -2.
The value for A5U U9A U32C A37U C49U G69A G93A was -4.95; that for A6C C13G G69A was -3.82.
Under A5U G71U C72U C101G G117U stands -5.12; under A5U U14A C53U U112A, 0.0341.
A6C A95G C102U C124G: the “polymerase ribozyme fitness (log ratio)” value is -0.561.
Under A6G G10C U112A stands -0.0126; under A6C C70G C82A, -2.15; under A6G C73U G117C, -2.3.
Regarding A5U C53A C88A C98A U109A, the “polymerase ribozyme fitness (log ratio)” value was -5.9.
The value for A6G G61U was -0.271; that for A6C G120U was 0.259.
With A6C G120A, the “polymerase ribozyme fitness (log ratio)” value was determined as 0.157.
The value for A6G C12G A27U G113U U125A was -7.04; that for A6C G48C was -1.5; that for A6C C40A C70G was -5.35.
Under A6C C115G stands -2.07; under A5U C11A G63A G93U, -2.91.
On to A5U G122A, for which the “polymerase ribozyme fitness (log ratio)” value was -0.551.
Under A5U C22G stands -3.43; under A6G A41U C85G A119U U125G, -6.15.
A5U U54G C79A G110C: the “polymerase ribozyme fitness (log ratio)” value is -6.31.
The value for A6G C11A U92G was -4.04.
Under A6C G69U C76G C85G G120U stands -1.75; under A5U G39A C73A U78C, -0.828.
Under A6G G69U C115A G120A stands 0.502.
In the case of A5U C11G A91G, the “polymerase ribozyme fitness (log ratio)” value is -0.601.
With A5U C13G C89U U92A G120A, the “polymerase ribozyme fitness (log ratio)” value was -2.77.
A6C G71C C82A U112A A118U: the “polymerase ribozyme fitness (log ratio)” value was -0.912.
The value for A6C G63U C115A U116C was -4.89; that for A6C C15G A46C G107U G117C was -4.61; that for A5U G42U A46G C72U U78G was -1.17.
The value for A6C C12U G48C U78G G110C was -4.8.
The value for A6G C28U was -0.918; that for A5U G17A G69A C79U G113U was -6.54; that for A6C A18U A50C G77U U87A was -3.65.
As to A6C C12A G52U G61A, the “polymerase ribozyme fitness (log ratio)” value is -1.1.
Under A6C A37G G47C C64U U87A G120C C124G stands -2.79; under A6C C73U C89U G113A, -2.7; under A6G G48A G71C G117A, -2.1.
The value for A6C G47A C124G was 0.159.
